Where a chain is given by its changes, count along the chain named. Read-outs that look alike come from different tables or passages of the source.
Tests used:
Assay in all cases: cell-based or functional assay
[1] = target: T1, recombinant human TFPI (tissue factor pathway inhibitor) (human, UniProt P10646 29-304)
[2] = target: T1, recombinant human TFPI (tissue factor …); remark: listed apart in the source
[3] = target: T1, recombinant human TFPI (tissue factor …); remark: listed apart in the source
[4] = target: T1, recombinant human TFPI (tissue factor …); remark: listed apart in the source
[5] = target: T1, recombinant human TFPI (tissue factor …); remark: listed apart in the source
[6] = target: T1, recombinant human TFPI (tissue factor …); remark: listed apart in the source
[7] = target: T1, recombinant human TFPI (tissue factor …); remark: listed apart in the source
[8] = target: T1, recombinant human TFPI (tissue factor …); remark: listed apart in the source
[9] = target: T1, recombinant human TFPI (tissue factor …); remark: listed apart in the source
[10] = target: T1, recombinant human TFPI (tissue factor …); remark: listed apart in the source
[11] = target: T1, recombinant human TFPI (tissue factor …); remark: listed apart in the source
[12] = target: T1, recombinant human TFPI (tissue factor …); remark: listed apart in the source
[13] = target: T1, recombinant human TFPI (tissue factor …); remark: listed apart in the source
[14] = target: T1, recombinant human TFPI (tissue factor …); remark: listed apart in the source

B1: clone 11 (antibody, V domains shown)
VH: EVQLVESGGGLVKPGGSLRLSCAASGFTFSSYAMNWVRQAPGKGLEWVGTITTGGSYTYYADSVEGRFTISRDNAKNSLYLQMNSLRAEDTAVYYCARQDGNFLMDYWGQGTLVTVSS
VL: DVVMTQTPLSLPVTLGQPASISCKSSPSLLDIDGKTYLNWLQQRPGQSPKRLIYLVSKLDSGVPDRFTGSGSGTDFTLKISRVEAEDVGVYYCWQGTHFPFTFGQGTKVEIKR
For B1, the “FXa assay % of FXa alone, 2.5 nM Ab, 10 nM TFPI” value [1] was 7%, the “FXa assay % of FXa alone, 5 nM Ab, 10 nM TFPI” value [1] was 29.6% and the “FXa assay OD, 2.5 nM Ab, 10 nM TFPI” value [1] was 0.0575. For the same binder, the “FXa assay OD, 5 nM Ab, 10 nM TFPI” value [1] was 0.244, the “FXa assay OD, 10 nM Ab, 10 nM TFPI” value [1] was 0.672 and the “FXa assay OD, 20 nM Ab, 10 nM TFPI” value [1] was 0.734. For the same binder, the “effect of inhibiting TFPI, FXa activity assay, Ab 10 nM” value (shortened to “effect of inhibiting TFPI … Ab 10 nM”) [2] was ~81% and the “effect of inhibiting TFPI, FXa activity assay, Ab 20 nM” value (“effect of inhibiting TFPI … Ab 20 nM” below) [2] was ~89%.

B2: clone A25 (antibody, V domains shown)
VH: B1 VH with G49S, Y57H
VL: B1 VL with P27Q, I32R
With B2 the “FXa assay % of FXa alone, 2.5 nM Ab, 10 nM TFPI” value [3] was 5.6% and the “FXa assay % of FXa alone, 10 nM Ab, 10 nM TFPI” value [3] was 5.3%.

B3: clone 3203 (antibody, V domains shown)
VH: B1 VH with N35S, G49S
VL: B1 VL with P27Q, I32L
With B3 the “A405, TF/FVIIa/FX complex assay, Ab 1.56 nM” value [4] was 0.147, the “A405, TF/FVIIa/FX complex assay, Ab 3.13 nM” value [4] was 0.162 and the “A405, TF/FVIIa/FX complex assay, Ab 6.25 nM” value [4] was 0.173. The “A405, TF/FVIIa/FX complex assay, Ab 12.5 nM” value [4] was 0.208, the “A405, TF/FVIIa/FX complex assay, Ab 25 nM” value [4] was 0.424 and the “A405, TF/FVIIa/FX complex assay, Ab 50 nM” value [4] was 0.934. For the same binder, the “A405, TF/FVIIa/FX complex assay, Ab 100 nM” value [4] was 0.932, the “FXa assay % of FXa alone, 2.5 nM Ab, 10 nM TFPI” value [5] was 6.2% and the “FXa assay % of FXa alone, 5 nM Ab, 10 nM TFPI” value [5] was 13.5%. The “FXa assay % of FXa alone, 10 nM Ab, 10 nM TFPI” value [5] was 48.5%, the “FXa assay % of FXa alone, 20 nM Ab, 10 nM TFPI” value [5] was 68% and the “FXa assay OD, 2.5 nM Ab, 10 nM TFPI” value [5] was 0.0505. The “FXa assay OD, 5 nM Ab, 10 nM TFPI” value [5] was 0.11, the “FXa assay OD, 10 nM Ab, 10 nM TFPI” value [5] was 0.394 and the “FXa assay OD, 20 nM Ab, 10 nM TFPI” value [5] was 0.552. For the same binder, the “% of Normalized, TF/FVIIa/FX complex assay, Ab 1.56 nM” value (from here on “% of Normalized … Ab 1.56 nM”) [6] was 16.1%, the “% of Normalized, TF/FVIIa/FX complex assay, Ab 3.13 nM” value (from here on “% of Normalized … Ab 3.13 nM”) [6] was 17.7% and the “% of Normalized, TF/FVIIa/FX complex assay, Ab 6.25 nM” value (from here on “% of Normalized … Ab 6.25 nM”) [6] was 18.9%. For the same binder, the “% of Normalized, TF/FVIIa/FX complex assay, Ab 12.5 nM” value (from here on “% of Normalized … Ab 12.5 nM”) [6] was 22.7%, the “% of Normalized, TF/FVIIa/FX complex assay, Ab 25 nM” value (from here on “% of Normalized … Ab 25 nM”) [6] was 46.3% and the “% of Normalized, TF/FVIIa/FX complex assay, Ab 50 nM” value (“% of Normalized … Ab 50 nM” below) [6] was 102%. For the same binder, the “% of Normalized, TF/FVIIa/FX complex assay, Ab 100 nM” value (shortened to “% of Normalized … Ab 100 nM”) [6] was 102%.

B4: clone 4017 (antibody, V domains shown)
VH: B1 VH with E65Q, N102Y
VL: B1 VL with P27Q
In the case of B4, the “FXa assay % of FXa alone, 2.5 nM Ab, 10 nM TFPI” value [7] is reported as 6%, the “FXa assay % of FXa alone, 5 nM Ab, 10 nM TFPI” value [7] is reported as 10.6% and the “FXa assay OD, 2.5 nM Ab, 10 nM TFPI” value [7] is reported as 0.046. For the same binder, the “FXa assay OD, 5 nM Ab, 10 nM TFPI” value [7] was 0.0815, the “FXa assay OD, 10 nM Ab, 10 nM TFPI” value [7] was 0.54 and the “FXa assay OD, 20 nM Ab, 10 nM TFPI” value [7] was 0.696. The “A405, TF/FVIIa/FX complex assay, Ab 1.56 nM” value [8] was 0.134, the “A405, TF/FVIIa/FX complex assay, Ab 3.13 nM” value [8] was 0.138 and the “A405, TF/FVIIa/FX complex assay, Ab 6.25 nM” value [8] was 0.15. For the same binder, the “A405, TF/FVIIa/FX complex assay, Ab 12.5 nM” value [8] was 0.181, the “A405, TF/FVIIa/FX complex assay, Ab 25 nM” value [8] was 0.307 and the “A405, TF/FVIIa/FX complex assay, Ab 50 nM” value [8] was 0.919. For the same binder, the “A405, TF/FVIIa/FX complex assay, Ab 100 nM” value [8] was 0.943, the “effect of inhibiting TFPI … Ab 10 nM” value [2] was ~70% and the “effect of inhibiting TFPI … Ab 20 nM” value [2] was ~90%. For the same binder, the “% of Normalized … Ab 1.56 nM” value [9] was 14.5%, the “% of Normalized … Ab 3.13 nM” value [9] was 15% and the “% of Normalized … Ab 6.25 nM” value [9] was 16.3%. For the same binder, the “% of Normalized … Ab 12.5 nM” value [9] was 19.7%, the “% of Normalized … Ab 25 nM” value [9] was 33.4% and the “% of Normalized … Ab 50 nM” value [9] was 100%. The “% of Normalized … Ab 100 nM” value [9] was 103%.

B5: clone A24 (antibody, V domains shown)
VH: B1 VH with S30H, G49S, G54R
VL: B1 VL with P27Q, I32V
In the case of B5, the “FXa assay % of FXa alone, 2.5 nM Ab, 10 nM TFPI” value [3] is reported as 5% and the “FXa assay % of FXa alone, 20 nM Ab, 10 nM TFPI” value [3] is reported as 4%.

B6: clone 1123 (antibody, V domains shown)
VH: B1 VH with G49S, Y57H, N102H
VL: B1 VL with P27Q
With B6 the “FXa assay % of FXa alone, 2.5 nM Ab, 10 nM TFPI” value [10] was 6.5%, the “FXa assay % of FXa alone, 5 nM Ab, 10 nM TFPI” value [10] was 14.7% and the “FXa assay OD, 2.5 nM Ab, 10 nM TFPI” value [10] was 0.0315. For the same binder, the “FXa assay OD, 5 nM Ab, 10 nM TFPI” value [10] was 0.071, the “FXa assay OD, 10 nM Ab, 10 nM TFPI” value [10] was 0.332 and the “FXa assay OD, 20 nM Ab, 10 nM TFPI” value [10] was 0.424. For the same binder, the “% of Normalized … Ab 1.56 nM” value [11] was 14.7%, the “% of Normalized … Ab 3.13 nM” value [11] was 15.8% and the “% of Normalized … Ab 6.25 nM” value [11] was 15.7%. The “% of Normalized … Ab 12.5 nM” value [11] was 16.4%, the “% of Normalized … Ab 25 nM” value [11] was 28.5% and the “% of Normalized … Ab 50 nM” value [11] was 80.7%. The “% of Normalized … Ab 100 nM” value [11] was 94.8%, the “A405, TF/FVIIa/FX complex assay, Ab 1.56 nM” value [12] was 0.14 and the “A405, TF/FVIIa/FX complex assay, Ab 3.13 nM” value [12] was 0.151. For the same binder, the “A405, TF/FVIIa/FX complex assay, Ab 6.25 nM” value [12] was 0.15, the “A405, TF/FVIIa/FX complex assay, Ab 12.5 nM” value [12] was 0.157 and the “A405, TF/FVIIa/FX complex assay, Ab 25 nM” value [12] was 0.272. The “A405, TF/FVIIa/FX complex assay, Ab 50 nM” value [12] was 0.77, the “A405, TF/FVIIa/FX complex assay, Ab 100 nM” value [12] was 0.905 and the “effect of inhibiting TFPI … Ab 10 nM” value [2] was ~69%. The “effect of inhibiting TFPI … Ab 20 nM” value [2] was ~88%.

B7: clone 1015 (antibody, V domains shown)
VH: B1 VH with G49S, Y57H
VL: B1 VL with P27Q
For B7, the “FXa assay % of FXa alone, 2.5 nM Ab, 10 nM TFPI” value [13] was 6.5%, the “FXa assay % of FXa alone, 5 nM Ab, 10 nM TFPI” value [13] was 14% and the “FXa assay OD, 2.5 nM Ab, 10 nM TFPI” value [13] was 0.0465. For the same binder, the “FXa assay OD, 5 nM Ab, 10 nM TFPI” value [13] was 0.101, the “FXa assay OD, 10 nM Ab, 10 nM TFPI” value [13] was 0.512 and the “FXa assay OD, 20 nM Ab, 10 nM TFPI” value [13] was 0.594. The “A405, TF/FVIIa/FX complex assay, Ab 1.56 nM” value [8] was 0.141, the “A405, TF/FVIIa/FX complex assay, Ab 3.13 nM” value [8] was 0.148 and the “A405, TF/FVIIa/FX complex assay, Ab 6.25 nM” value [8] was 0.158. For the same binder, the “A405, TF/FVIIa/FX complex assay, Ab 12.5 nM” value [8] was 0.179, the “A405, TF/FVIIa/FX complex assay, Ab 25 nM” value [8] was 0.269 and the “A405, TF/FVIIa/FX complex assay, Ab 50 nM” value [8] was 0.919. For the same binder, the “A405, TF/FVIIa/FX complex assay, Ab 100 nM” value [8] was 0.944, the “effect of inhibiting TFPI … Ab 10 nM” value [2] was ~71% and the “effect of inhibiting TFPI … Ab 20 nM” value [2] was ~83%. The “% of Normalized … Ab 1.56 nM” value [9] was 15.4%, the “% of Normalized … Ab 3.13 nM” value [9] was 16.1% and the “% of Normalized … Ab 6.25 nM” value [9] was 17.2%. The “% of Normalized … Ab 12.5 nM” value [9] was 19.4%, the “% of Normalized … Ab 25 nM” value [9] was 29.3% and the “% of Normalized … Ab 50 nM” value [9] was 100%. For the same binder, the “% of Normalized … Ab 100 nM” value [9] was 103%.

B8: clone A63 (antibody, V domains shown)
VH: B1 VH with G49S, E65Q
VL: B1 VL with P27Q, I32V
B8 was tested, and the “FXa assay % of FXa alone, 2.5 nM Ab, 10 nM TFPI” value [3] was 4.8%, the “FXa assay % of FXa alone, 5 nM Ab, 10 nM TFPI” value [3] was 5.3% and the “FXa assay % of FXa alone, 10 nM Ab, 10 nM TFPI” value [3] was 4.5%. The “FXa assay % of FXa alone, 20 nM Ab, 10 nM TFPI” value [3] was 5.6%.

B9: clone 1214 (antibody, V domains shown)
VH: B1 VH with G49S
VL: B1 VL with P27Q, I32V
In the case of B9, the “FXa assay % of FXa alone, 2.5 nM Ab, 10 nM TFPI” value [14] is reported as 6.9%, the “FXa assay % of FXa alone, 5 nM Ab, 10 nM TFPI” value [14] is reported as 23.2% and the “FXa assay OD, 2.5 nM Ab, 10 nM TFPI” value [14] is reported as 0.06. For the same binder, the “FXa assay OD, 5 nM Ab, 10 nM TFPI” value [14] was 0.202, the “FXa assay OD, 10 nM Ab, 10 nM TFPI” value [14] was 0.545 and the “FXa assay OD, 20 nM Ab, 10 nM TFPI” value [14] was 0.672. The “effect of inhibiting TFPI … Ab 10 nM” value [2] was ~63% and the “effect of inhibiting TFPI … Ab 20 nM” value [2] was ~77%.
